Measured values from patent US20030186844A1 (MERCK, published 2003).
Where two headings read alike, the source gives them in different places. One block for each binder: values may come before it. Where no end group is shown, it is not given here. [ ]: non-standard residue; d: D form. The star is where a group is joined. Octanoyl = CCCCCCCC(=O)*; Dap = NC[C@H](N)C(=O)O

Tests used:
[1] = biological target: T1, human GHS receptor 1a (human, UniProt Q92847 1-366); assay: cell-based or functional assay
[2] = biological target: T1, human GHS receptor 1a; assay: competitive filter binding vs [35S]-MK-677, membranes of HEK 293-AEQ17 cells transfected with human GHS receptor
Description: (§1) Binding of [³⁵S]-MK-677 to crude membranes prepared from HEK 293-aequorin stable cell lines was performed as described in Chen et al., Bioorg. Med. Chem. Lett. 1996, 6, 2163-2169, and Howard et al., Science 1996, 273, 974-977. Prior to the binding assay, the HEK 293-AEQ17 cells (8×10⁵ cells plated 18 hours before transfection in a T75 flask) were transfected with 22 μg of human GHS receptor plasmid using 264 μg lipofectamine.

[3] = biological target: T1, human GHS receptor 1a; assay: cell-based or functional assay; remark: listed apart in the source
[4] = biological target: T1, human GHS receptor 1a; assay: competitive filter binding vs [35S]-MK-677, membranes of HEK 293-AEQ17 cells transfected with human GHS receptor; remark: listed apart in the source
Description: as §1

T1 sequence (Q92847 whole entry): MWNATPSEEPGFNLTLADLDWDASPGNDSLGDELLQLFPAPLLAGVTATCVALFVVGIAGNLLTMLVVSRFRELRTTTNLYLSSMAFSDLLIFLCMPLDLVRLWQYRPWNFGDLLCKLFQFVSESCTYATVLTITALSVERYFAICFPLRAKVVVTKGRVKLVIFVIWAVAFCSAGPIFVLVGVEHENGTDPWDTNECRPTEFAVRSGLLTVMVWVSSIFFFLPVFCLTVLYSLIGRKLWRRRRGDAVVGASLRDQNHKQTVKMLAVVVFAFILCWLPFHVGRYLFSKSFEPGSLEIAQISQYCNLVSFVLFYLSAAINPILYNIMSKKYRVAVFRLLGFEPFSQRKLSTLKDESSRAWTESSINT

% activation at 10 µM relative to ghrelin [1]: 92%
Functional Assay EC50 (aequorin bioluminescence) [1]: 22 nM
IC50 [2]: 0.77 nM
B1: compound 19 (peptide)
peptide: GSS(Octanoyl)FLSPEHQRVQQRKES-NH2
modifications: N-terminus assumed
SMILES: CCCCCCCC(=O)OC[C@H](NC(=O)[C@H](CO)NC(=O)CN)C(=O)N[C@@H](Cc1ccccc1)C(=O)N[C@@H](CC(C)C)C(=O)N[C@@H](CO)C(=O)N1CCC[C@H]1C(=O)N[C@@H](CCC(=O)O)C(=O)N[C@@H](Cc1c[nH]cn1)C(=O)N[C@@H](CCC(N)=O)C(=O)N[C@@H](CCCNC(=N)N)C(=O)N[C@H](C(=O)N[C@@H](CCC(N)=O)C(=O)N[C@@H](CCC(N)=O)C(=O)N[C@@H](CCCNC(=N)N)C(=O)N[C@@H](CCCCN)C(=O)N[C@@H](CCC(=O)O)C(=O)N[C@@H](CO)C(N)=O)C(C)C

% activation at 10 µM relative to ghrelin [1]: 96%
Functional Assay EC50 (aequorin bioluminescence) [1]: 11.5 nM
IC50 [2]: 55 nM
B2: compound 21 (peptide)
peptide: GSS(Octanoyl)FL-NH2
modifications: N-terminus assumed
SMILES: CCCCCCCC(=O)OC[C@H](NC(=O)[C@H](CO)NC(=O)CN)C(=O)N[C@@H](Cc1ccccc1)C(=O)N[C@@H](CC(C)C)C(N)=O

Functional Assay EC50 (aequorin bioluminescence) [3]: 31 nM
IC50 [4]: 0.42 nM
B3: compound 12 (peptide)
peptide: GSXFLSPEHQRVQQRKESKKPPAKLQPR
modifications: X^b at position 3: 2,3-di-amino-propionic acid in place of Ser3, its beta-amino group acylated with n-octanoic acid

% activation at 10 µM relative to ghrelin [3]: 97%
Functional Assay EC50 (aequorin bioluminescence) [3]: 17 nM
% activation at 10 µM relative to ghrelin [1]: 97%
Functional Assay EC50 (aequorin bioluminescence) [1]: 17 nM
IC50 [4]: 9.6 nM
IC50 [2]: 9.6 nM
B4: compound 13 (peptide)
peptide: GSS(Octanoyl)FLSPEHQRVQQ

% activation at 10 µM relative to ghrelin [3]: 102%
Functional Assay EC50 (aequorin bioluminescence) [3]: 38 nM
IC50 [4]: 8 nM
B5: compound 14 (peptide)
peptide: GS[Dap](Octanoyl)FLSPEHQRVQQ

% activation at 10 µM relative to ghrelin [1]: 100%
Functional Assay EC50 (aequorin bioluminescence) [1]: 15 nM
IC50 [2]: 0.16 nM
B6: compound 18 (peptide)
peptide: GSS(Octanoyl)FLSPEHQRVQQRKESKKPPA-NH2
modifications: N-terminus assumed
SMILES: CCCCCCCC(=O)OC[C@H](NC(=O)[C@H](CO)NC(=O)CN)C(=O)N[C@@H](Cc1ccccc1)C(=O)N[C@@H](CC(C)C)C(=O)N[C@@H](CO)C(=O)N1CCC[C@H]1C(=O)N[C@@H](CCC(=O)O)C(=O)N[C@@H](Cc1c[nH]cn1)C(=O)N[C@@H](CCC(N)=O)C(=O)N[C@@H](CCCNC(=N)N)C(=O)N[C@H](C(=O)N[C@@H](CCC(N)=O)C(=O)N[C@@H](CCC(N)=O)C(=O)N[C@@H](CCCNC(=N)N)C(=O)N[C@@H](CCCCN)C(=O)N[C@@H](CCC(=O)O)C(=O)N[C@@H](CO)C(=O)N[C@@H](CCCCN)C(=O)N[C@@H](CCCCN)C(=O)N1CCC[C@H]1C(=O)N1CCC[C@H]1C(=O)N[C@@H](C)C(N)=O)C(C)C
